Results published in patent US20220396632A1 (VERSEAU THERAPEUTICS, published 2022).
No end group written: not given here. *: point of attachment. Biotin = O=C1N[C@H]2[C@H](CS[C@H]2CCCCC(=O)*)N1

How the values were obtained:
42-80 = molecular target: T1, 42-80 (C-terminal Lys-biotin); test: ELISA, streptavidin-immobilized biotin peptide [cont.]
T1 construct: also called Biotin PSGL-1(42-80) peptide
T1 peptide: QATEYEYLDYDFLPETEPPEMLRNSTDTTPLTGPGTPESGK
Method: (§1) A typical ELISA experiment involved binding of a single concentration or serially diluted mAb in assay buffer (3% BSA in PBS containing 0.05% Tween®20, pH 7.4) onto BSA blocked high binding microtiter plate half-wells (Corning Cat. #3690), which contained PSGL-1 protein or streptavidin-immobilized biotin peptide. After incubation for 45 min. at 37° C., the plate was washed 3 times with wash buffer (PBS containing 0.05% Tween®20, pH 7.4), and an appropriate HRP-conjugated secondary antibody added (25 ul/well) (HRP goat anti-mouse or anti-human IgG). After 45 min. incubation at 37° C., the plate was washed and antibody bound to plate-immobilized target was determined at A450 nm using HRP substrate (3,3′5,5′-tetramethylbenzidine (TMB)). For each antibody, duplicate values were averaged and assay background subtracted.

63-80 = molecular target: T2, 63-80 (N-terminal acetyl; C-terminal Lys-biotin); test: as above
T2 construct: also called Biotin PSGL-1(63-80) peptide
T2 peptide: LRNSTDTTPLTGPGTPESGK
Method: as §1

75-95 = molecular target: T3, 75-95 (N-terminal acetyl; C-terminal Lys-biotin); test: as above
T3 construct: also called Biotin PSGL-1(75-95) peptide
T3 peptide: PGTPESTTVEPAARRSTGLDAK
Method: as §1

PSGL-1(90-110) = molecular target: T4, PSGL-1(90-110) (N-terminal acetyl; C-terminal Lys-biotin); test: as above
T4 construct: also called Biotin PSGL-1(90-110) peptide
T4 peptide: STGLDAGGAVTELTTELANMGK
Method: as §1

PSGL-1(120-140) = molecular target: T5, PSGL-1(120-140) (N-terminal acetyl; C-terminal Lys-biotin); test: as above
T5 construct: also called Biotin PSGL-1(120-140) peptide
T5 peptide: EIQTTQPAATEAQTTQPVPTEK
Method: as §1

131-150 = molecular target: T6, 131-150 (N-terminal acetyl; C-terminal Lys-biotin); test: as above
T6 construct: also called Biotin PSGL-1(131-150) peptide
T6 peptide: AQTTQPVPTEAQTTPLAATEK
Method: as §1

145-170 = molecular target: T7, 145-170 (N-terminal acetyl; C-terminal Lys-biotin); test: as above
T7 peptide: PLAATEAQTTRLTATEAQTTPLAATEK
Method: as §1

165-190 = molecular target: T8, 165-190 (N-terminal acetyl; C-terminal Lys-biotin); test: as above
T8 construct: also called Biotin PSGL-1(165-190) peptide
T8 peptide: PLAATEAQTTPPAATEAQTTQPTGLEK
Method: as §1

185-210 = molecular target: T9, 185-210 (N-terminal acetyl; C-terminal Lys-biotin); test: as above
T9 construct: also called Biotin PSGL-1(185-210) peptide
T9 peptide: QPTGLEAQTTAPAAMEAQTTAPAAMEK
Method: as §1

205-230 = molecular target: T10, 205-230 (N-terminal acetyl; C-terminal Lys-biotin); test: as above
T10 peptide: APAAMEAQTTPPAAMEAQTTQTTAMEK
Method: as §1

225-250 = molecular target: T11, 225-250 (N-terminal acetyl; C-terminal Lys-biotin); test: as above
T11 peptide: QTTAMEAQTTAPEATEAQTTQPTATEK
Method: as §1

245-265 = molecular target: T12, 245-265 (N-terminal acetyl; C-terminal Lys-biotin); test: as above
T12 peptide: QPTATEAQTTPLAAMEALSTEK
Method: as §1

260-280 = molecular target: T13, 260-280 (N-terminal acetyl; C-terminal Lys-biotin); test: as above
T13 construct: also called Biotin PSGL-1(260-280) peptide
T13 peptide: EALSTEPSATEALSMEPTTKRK
Method: as §1

275-295 = molecular target: T14, 275-295 (N-terminal acetyl; C-terminal Lys-biotin); test: as above
T14 peptide: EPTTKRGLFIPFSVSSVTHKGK
Method: as §1

PSGL-1(305-320) = molecular target: T15, PSGL-1(305-320); test: as above
T15 construct: also called Biotin PSGL-1(305-320) peptide
T15 peptide: Ac-VNYPVGAPDHISVKQSK(Biotin)
Method: as §1

[1] = molecular target: T16, Biotin PSGL-1(56-70) peptide (human); test: as above
T16 peptide: Ac-ETEPPEMLRNSTDTTGK(Biotin)
Method: as §1

[2] = molecular target: T17, Biotin PSGL-1(42-62) peptide, unmodified (human, C-terminal Lys-biotin); test: as above
T17 construct: Residues 42-62 followed by GGGK-biotin; also called WT; wild-type
T17 peptide: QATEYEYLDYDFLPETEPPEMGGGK
Method: as §1

[3] = molecular target: T18, Biotin sY51 PSGL-1(42-62) peptide (human, sulfotyrosine at Y51; C-terminal Lys-biotin); test: ELISA, plate-bound peptide
T18 construct: also called Y51(SO3) PSGL-1(42-62)
T18 peptide: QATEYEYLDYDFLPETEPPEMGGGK

[4] = molecular target: T19, Biotin PSGL-1(105-125) peptide (human, N-terminal acetyl; C-terminal Lys-biotin); test: ELISA, plate-bound peptide or protein
T19 peptide: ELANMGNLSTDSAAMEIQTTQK
Method: as §1

B1: 18K07 (antibody, V domains shown)
VH: QIQLVQSGPELKKPGETVKISCEASGYTFTTYGMNWVKQAPGKGLKWMGWINTYSGVPTYADDFQGRFAFSVETSATTAYLQINNLKNEDAATYFCARSDDTYYGFAYWGQGTLVTVSA
VL: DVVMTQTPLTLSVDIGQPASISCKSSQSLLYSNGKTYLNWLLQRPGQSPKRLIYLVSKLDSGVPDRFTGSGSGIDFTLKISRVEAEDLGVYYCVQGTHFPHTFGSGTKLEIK
notes: From mouse immunisation; only variable domains given
binding result (42-80): no binding (tested: 10 nM) | binding result (63-80): no binding (tested: 10 nM) | binding result (75-95): no binding (tested: 10 nM) | binding result (PSGL-1(90-110)): no binding (tested: 10 nM) | binding result (PSGL-1(120-140)): no binding (tested: Log M -7 (100 nM)) | binding result (131-150): no binding (tested: 10 nM) | binding result (145-170): no binding (tested: 10 nM) | binding result (165-190): no binding (tested: 10 nM) | binding result (185-210): no binding (tested: 10 nM) | binding result (205-230): no binding (tested: 10 nM) | binding result (225-250): no binding (tested: 10 nM) | binding result (245-265): no binding (tested: 10 nM) | binding result (260-280): no binding (tested: 10 nM) | binding result (275-295): no binding (tested: 10 nM) | binding result (PSGL-1(305-320)): no binding (tested: 10 nM) | binding result [1]: no binding (tested: 10 nM) | binding result [2]: no binding (tested: 10 nM)

B2: 20I15 (antibody, V domains shown)
VH: EVKLVESGGGLVQPGGSLSLSCAASGFTFTDYYMSWVRQPPGKALEWLGFIRNKANGYTTEYSASVKGRFTISRDNSQSILYLQMNALRAEDSATYYCARTYLRRGYFDVWGTGTTVTVSS
VL: DIVLTQSPASLAVSLGQRATISCRASKSVSTSGYSYMHWFQQKPGQPPKLLIYLASNLESGVPARFSGSGSGTDFTLNIHPVEEEDAATYYCQHSRELPLTFGAGTKLELK
notes: From mouse immunisation; only variable domains given; also called 20115
fold weaker binding than to the peptide with all 3 sulfated tyrosines [3]: ~300 fold

B3: 16E17 (antibody, V domains shown)
VH: QIQLVQSGPELKKPGETVKISCKASGYAFTTYGMSWVKQAPGKGLKWMGWINTYSGVPKYADDFKGRFAFSLETSASTAYLHINNLKNEDTATYFCGRHYYGSSYFDYWGQGTTLTVSS
VL: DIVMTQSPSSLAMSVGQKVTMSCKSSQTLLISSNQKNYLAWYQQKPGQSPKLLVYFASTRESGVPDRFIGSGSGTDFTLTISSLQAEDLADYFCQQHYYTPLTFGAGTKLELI
notes: as for B1
EC50 [4]: 26.7 nM
